B1: At EG_40: endoglucanase of Acremonium thermophilum ALKO4245, gene At cel45A, amino acid SEQ ID NO: 12 (protein)
chain: MRSSPFLRAALAAALPLSAHALDGKSTRYWDCCKPSCGWPGKASVNQPVFSCSADWQRISDFNAKSGCDGGSAYSCADQTPWAVNDNFSYGFAATAIAGGSESSWCCACYALTFNSGPVAGKTMVVQSTSTGGDLGSNQFDLAIPGGGVGIFNGCASQFGGLPGAQYGGISDRSQCSSFPAPLQPGCQWRFDWFQNADNPTFTFQRVQCPSELTSRTGCKRDDDASYPVFNPPSGGSPSTTSTTTSSPSGPTGNPPGGGGCTAQKWAQCGGTGFTGCTTCVSGTTCQVQNQWYSQCL
B2: Ct βG_76: beta-glucosidase of Chaetomium thermophilum ALKO4261, gene Ct cel3A, amino acid SEQ ID NO: 26 (protein)
chain: MALHAFLLLASALLARGALSQPDNVRRAAPTGTAAWDAAHSQAAAAVSRLSQQDKINIVTGVGWGKGPCVGNTNPVYSINYPQLCLQDGPLGIRSATSVTAFTPGIQAASTWDVELIRQRGVYLGQEARGTGVHVLLGPVAGALGKIPHGGRNWEAFGSDPYLAGIAMSETIEGIQSEGVQACAKHYIANEQELNRETMSSNVDDRTMHELYLWPFADAVHSNVASVMCSYNKLNGTWLCENDRAQNQLLKRELGFRGYIVSDWNAQHTTVGSANSGMDMTMPGSDFNGWNVLWGPQLNNAVNSGQVSQSRLNDMVQRILAAWYLLGQNSGYPSINLRANVQANHKENVRAVARDGIVLLKNDGILPLQRPNKIALVGSAAVVNPRGMNACVDRGCNEGALGMGWGSGTVEYPYFVAPYDALRERAQRDGTQISLHASDNTNGVNNAVQGADAAFVFITADSGEGYITVEGHAGDRNHLDPWHNGNQLVQAVAQANKNVIVVVHSVGPVILETILNTPGVRAVVWAGLPSQESGNALVDVLYGLVSPSGKLVYTIAKSPSDYPTSIVRGDDNFREGLFIDYRHFDNARIEPRFEFGFGLSYTNFSYSNLGISSSATAGPATGPTVPGGPADLWNYVATVTATVTNTGGVEGAEVAQLYISLPSSAPASPPKQLRGFVKLKLAPGQSGTATFRLRKRDLAYWDVGRQNWVVPSGRFGVLVGASSRDIRLQGEIVV

Assays:
Format in all cases: biochemical
[1] = Hydrolysis with endoglucanase preparations, spruce; details: 48 h, 45° C., pH 5.0
Description: (§1) The preparations containing the endoglucanases were compared in hydrolysis studies mixed with the purified CBH/Cel7 and CBH/Cel6 enzymes on several pre-treated substrates. Culture filtrates of T. reesei, containing different cloned endoglucanase enzymes were obtained as described in Example 19. The enzymes were enriched by removing thermolabile proteins from the mixtures by a heat treatment (60° C., 2 h, pH 5) and the supernatant was used for the hydrolysis studies. In addition, pure T. reesei cellulases (purified as described by Suurnäkki et al., 2000) were used in the enzyme mixtures. The endoglucanases used in the experiment were:
Washed steam pre-treated spruce fibre (impregnation with 3% SO2 for 20 min, followed by steam pre-treatment at 215° C. for 5 min), dry matter 25.9% (SPRUCE).
(§2) The endoglucanases to be studied (dosage 840 nkat/g dry matter, based on endoglucanase activity against HEC according to IUPAC, 1987) were used either with cellobiohydrolases of T. reesei (CBHI/Cel7A, 8.1 mg/g d.m. and CBHII/Cel6A, 2.0 mg/g d.m.) or with Thermoascus aurantiacus Cel7A with genetically attached CBD of T. reesei (10.1 mg/g d.m.). Purified (Suurnäkki et al., 2000) EGI (Cel7B) and EGII (Cel5A) of T. reesei were also included in the experiments for comparison. All mixtures were supplemented with additional β-glucosidase from Novozym 188 (to make the total β-glucosidase dosage 560 nkat/g d.w., the relatively high dosage was used to compensate the differences in the background activities of the different EG preparations). Triplicate tubes were incubated in mixing at 45° C. for 48 h and reference samples with inactivated enzymes and corresponding substrates were prepared. The release of hydrolysis products was measured as reducing sugars with DNS method using glucose as standard (Table 31).

[2] = Hydrolysis with endoglucanase preparations, corn stover; details: 48 h, 45° C., pH 5.0
Description: as §1
Steam exploded corn stover fibre (steam pre-treatment at 210° C. for 5 min), dry matter 31.0% (SECS).
as §2

[3] = pH optimum of heterologously produced endoglucanases; details: McIlvaine's buffer
Description: (§3) The pH optimum of the heterologously produced endoglucanases was determined in the universal McIlvaine's buffer within a pH range of 4.0-8.0 using carboxymethylcellulose as substrate. As shown in FIG. 6 A the broadest pH range (4.5-6.0) is that of the Acremonium EG—40/Cel45A protein, the optimum being at pH 5.5. The pH optima for the other heterologously produced endoglucanases are pH 5.0-5.5 and 6.0 for Acremonium EG—40_like/Cel45B and Thermoascus EG—28/Cel5A, respectively. The optimal temperature for enzymatic activity of these endoglucanases was determined at the temperature range of 50-85° C. as described above. The highest activity of the enzymes was determined to be at 75° C., 60° C., and 75° C. for the Acremonium EG—40/Cel45A, EG—40 like/Cel45B, and Thermoascus EG—28/Cel5A, respectively (FIG. 6 B).

[4] = Endoglucanase activity on carboxymethyl cellulose; details: purified endoglucanase, 50° C., procedure of IUPAC 1987
Description: The specific activity of the preparations was determined using 4-methylumbelliferyl-β-D-lactoside (MUL), 4-methylumbelliferyl-β-D-cellobioside (MUG2) or 4-methylumbelliferyl-β-D-cellotrioside (MUG3) as substrate (van Tilbeurgh et al., 1988) in 0.05 M sodium citrate buffer pH 5 at 50° C. for 10 min. Endoglucanase and xylanase activities were determined by standard procedures (according to IUPAC, 1987) using carboxymethyl cellulose (CMC) and birch glucuronoxylan (Bailey et al., 1992) as substrates. Specific activity against Avicel was calculated on the basis of reducing sugars formed in a 24 h reaction at 50° C., pH 5.0, with 1% substrate and 0.25 μM enzyme dosage. The protein content of the purified enzyme preparations was measured according to Lowry et al., 1951. To characterize the end products of hydrolysis, soluble sugars liberated in 24 h hydrolysis experiment, as described above, were analysed by HPLC (Dionex). Purified cellobiohydrolase I (CBHI/Cel7A) of Trichoderma reesei was used as a reference.
(§4) Acremonium thermophilum ALKO4245 was grown as described in Example 1. The culture supernatant was incubated at 70° C. for 24 hours after which it was concentrated by ultrafiltration. The pure endoglucanase was obtained by sequential purification with hydrophobic interaction and cation exchange chromatography followed by gel filtration. The endoglucanase activity of the fractions collected during purification was determined using carboxymethyl cellulose (CMC) as substrate (procedure of IUPAC 1987). Protein content was measured by BioRad Assay Kit (Bio-Rad Laboratories) using bovine serum albumine as standard.
as §4, with “Thermoascus aurantiacus ALKO4242 was” for “Acremonium thermophilum ALKO4245 was”, “1.” for “1. The culture supernatant was incubated at 70° C. for 24 hours after which it was concentrated by ultrafiltration.”, “and anion” for “and cation”

[5] = Temperature optimum of heterologously produced endoglucanases; details: temperature range 50-85° C., CMC
Description: as §3

[6] = pH optimum of heterologously produced β-glucosidases; details: McIlvaine's buffer, pH range 3.0-8.0, 4-nitrophenyl-β-D-glucopyranoside
Description: (§5) The pH optimum of the heterologously produced β-glucosidases was determined in the universal McIlvaine's buffer within a pH range of 3.0-8.0 using 4-nitrophenyl-β-D-glucopyranoside as substrate. The pH optima for the Acremonium βG—101, Chaetomium βG—76, and Thermoascus βG—81 are pH 4.5, 5.5, and 4.5, respectively (FIG. 7 A). The optimal temperature for enzymatic activity of these β-glucosidases was determined at the temperature range of 50-85° C. as described above. The highest activity of the enzymes was determined to be at 70° C., 65° C., and 75° C. for the Acremonium βG—101/Cel3A, Chaetomium βG—76/Cel3A, and Thermoascus βG—81/Cel3A, respectively (FIG. 7 B).

[7] = Temperature optimum of heterologously produced β-glucosidases; details: temperature range 50-85° C., 60 min
Description: as §5

[8] = with CBHI and CBHII of T. reesei
[9] = with T. aurantiacus Cel7A + Tr CBD

| Molecule | Hydrolysis products as reducing sugars, SPRUCE [1, 8] [mg/mL] | Hydrolysis products as reducing sugars, SPRUCE [1, 9] [mg/mL] | Hydrolysis products as reducing sugars, SECS [2, 8] [mg/mL] | Hydrolysis products as reducing sugars, SECS [2, 9] [mg/mL] | pH range (broadest) ([3]; CMC) | pH optimum ([3]; pH range 4.0-8.0, CMC, 10 min, 50° C.) | Specific activity on CMC [4] [nkat/mg] | Temperature of highest activity [5] [°C] | pH optimum [6] | Temperature of highest activity [7] [°C] |
| --- | --- | --- | --- | --- | --- | --- | --- | --- | --- | --- |
| B1 | 4.9 | 4.8 | 4.3 | 4.0 | 4.5-6.0 | 5.5 | 450 | 75 |  |  |
| B2 |  |  |  |  |  |  |  |  | 5.5 | 65 |

— US8409836B2, “Treatment of cellulosic material and enzymes useful therein” (Roal Oy, priority 2005, dated 2013)
